The record followed here is US7226603.

For assay [1], the target named is T1, HBV core antigen (hepatitis B virus), P03146.
T1 chain: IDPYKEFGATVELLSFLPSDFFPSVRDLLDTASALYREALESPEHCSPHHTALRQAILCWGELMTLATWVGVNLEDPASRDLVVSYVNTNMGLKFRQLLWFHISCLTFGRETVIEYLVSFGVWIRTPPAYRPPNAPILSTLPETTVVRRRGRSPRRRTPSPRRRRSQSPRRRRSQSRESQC
Kind of assay: relative dissociation constant (KD^Rel), fd fusion phage with HBV core antigen in solution.

The target of assay [2] is T2, C-terminally truncated HBV core antigen (aa3-148) (hepatitis B virus), P03146.
T2 chain: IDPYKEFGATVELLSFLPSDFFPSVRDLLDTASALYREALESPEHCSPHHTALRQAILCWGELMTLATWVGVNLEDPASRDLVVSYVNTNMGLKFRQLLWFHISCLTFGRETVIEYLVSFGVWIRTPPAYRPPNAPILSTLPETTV
Kind of assay: EDC/sulpho-NHS crosslinking, SDS-PAGE band shift.

Some results are limits rather than exact numbers.

B1: fd fusion phage carrying … (SEQ ID NO: 22) (peptide)
chain: ADGHRSSLLGRMKGA
modifications: not checked
The term Kd denotes the equilibrium constant for the complex coming apart. High values mean a looser complex, low ones a tighter complex. Turning to B1, the Kd in assay [1] amounted to 1.4 nM.

B2: fd fusion phage carrying … (SEQ ID NO: 23) (peptide)
chain: ADGPRSSLLGRMKGA
modifications: not checked
Molecule B2 had a Kd in assay [1] of 0.84 nM.

B3: fd fusion phage carrying … (SEQ ID NO: 17) (peptide)
chain: ADGTLLGRMKLA
modifications: not checked
B3 displayed a Kd in assay [1] of 20 nM.

B4: fd fusion phage carrying … (SEQ ID NO: 24) (peptide)
chain: ADGAHRSLLGRMKGA
modifications: not checked
Turning to B4, the Kd in assay [1] is 0.94 nM. This Kd lies about 21-fold lower than the previous one.

B5: fd fusion phage carrying … (SEQ ID NO: 26) (peptide)
chain: ADGTQRSLLGRMKGA
modifications: not checked
The molecule B5 came in with a Kd in assay [1] of 0.84 nM.

B6: fd fusion phage carrying … (SEQ ID NO: 20) (peptide)
chain: ADGSRSSLLGRMKGA
modifications: not checked
In assay [1], B6 displayed a Kd of 1.96 nM.

B7: fd fusion phage carrying … (SEQ ID NO: 25) (peptide)
chain: ADGYQRSLLGRMKGA
modifications: not checked
The molecule B7 gave a Kd in assay [1] of 0.88 nM.

B8: fd fusion phage carrying … (SEQ ID NO: 16) (peptide)
chain: ADGALLGRMKRA
modifications: not checked
In turn, B8 came in with an equilibrium dissociation constant (Kd) in assay [1] of 181 nM.

B9: fd fusion phage carrying … (SEQ ID NO: 14) (peptide)
chain: ADGALLGRMKPA
modifications: not checked
Consider B9, for which, in assay [1], the Kd turned out to be 767 nM.

B10: fd fusion phage carrying … (SEQ ID NO: 15) (peptide)
chain: ADGSLLGRMKPA
modifications: not checked
Consider B10, for which the Kd in assay [1] was found to be 322 nM.

B11: fd fusion phage carrying … (SEQ ID NO: 19) (peptide)
chain: ADRSLLGRMKGA
modifications: not checked
The molecule B11 gave a Kd in assay [1] of 1.09 nM.

B12: peptide … (SEQ ID NO: 40) (peptide)
peptide: MHRSLLGRMKGA
modifications: not checked
As to B12, the yield of the shifted (crosslinked) protein band in assay [2] is below 50%.
